What was measured:
Experiment in all cases: MTAP substrate assay, coupled spectrophotometric (adenine, xanthine oxidase)
Format in all cases: biochemical, human
Settings in all cases: other: substrate of MTAP, 37° C.
[1] = substrate: CC(C)CSC[C@@H]1O[C@H](n2cnc3c(N)ncnc32)[C@H](O)[C@@H]1O
Procedure: (§1) An enzymatic assay to determine the activity of MTAP against a given substrate was performed. Human MTAP containing an N-terminal six-histidine tag was expressed in E. coli BL21 DE3 cells. The protein was purified to homogeneity by Ni2+ affinity chromatography. Enzymatic activity was measured using a coupled spectrophotometric assay designed to monitor the reaction product adenine (Savarese, T. M., Crabtree, G. W., and Parks, R. E. Jr., (1980) Biochem. Pharmacol. 30, 189-199). Various concentrations of the indicated 5′-deoxymethylthio adenosine (MTA) or substrate were incubated in assay buffer (40 mM potassium phosphate buffer, 1 mM, and DTT 0.8 units/ml xanthine oxidase coupling enzyme) for 5 minutes at 37° C. The reaction was initiated by the addition of MTAP. The exact concentration of enzyme used varied for each substrate tested and ranged from 2 nM to 500 nM. Activity as a function of enzyme concentration was determined for each substrate tested to ensure that the appropriate enzyme concentration was used. Activity was detected by continuous monitoring of absorbance at 305 nm for 10 minutes (ΔE=15,500 M^−1).
(§2) Library compounds (10 and 50 uM) were tested using the assay described above with 2 nM MTAP enzyme. The resultant initial velocities are reported as a percentage of the initial velocity observed when MTA is the substrate. MTA controls, 10 and 50 uM concentrations, were run on each plate alongside the library compounds.

[2] = substrate: CCOC(=O)CCSC[C@H]1O[C@@H](n2cnc3c(N)ncnc32)[C@H](O)[C@@H]1O
Procedure: as §1, §2

[3] = substrate: Nc1ncnc2c1ncn2[C@@H]1O[C@H](CSC2CCCC2)[C@@H](O)[C@H]1O
Procedure: as §1, §2

[4] = substrate: Cc1ccc(SC[C@H]2O[C@@H](n3cnc4c(N)ncnc43)[C@H](O)[C@@H]2O)cc1
Procedure: as §1, §2

[5] = substrate: NCCSC[C@H]1O[C@@H](n2cnc3c(N)ncnc32)[C@H](O)[C@@H]1O
Procedure: as §1, §2

[6] = substrate: COc1ccc(CSC[C@H]2O[C@@H](n3cnc4c(N)ncnc43)[C@H](O)[C@@H]2O)cc1
Procedure: as §1, §2

[7] = substrate: Nc1ncnc2c1ncn2[C@@H]1O[C@H](CSc2ccccc2)[C@@H](O)[C@H]1O
Procedure: as §1, §2

[8] = substrate: COc1cccc(SC[C@H]2O[C@@H](n3cnc4c(N)ncnc43)[C@H](O)[C@@H]2O)c1
Procedure: as §1, §2

[9] = substrate: Nc1ncnc2c1ncn2[C@@H]1O[C@H](CSc2ncccn2)[C@@H](O)[C@H]1O
Procedure: as §1, §2

[10] = substrate: Nc1ncnc2c1ncn2[C@@H]1O[C@H](CSc2ccccn2)[C@@H](O)[C@H]1O
Procedure: as §1, §2

[11] = substrate: Nc1ncnc2c1ncn2[C@@H]1O[C@H](COc2cccnc2)[C@@H](O)[C@H]1O
Procedure: as §1, §2

[12] = substrate: C[C@H]1O[C@@H](n2cnc3c(N)ncnc32)[C@H](O)[C@@H]1O
Procedure: as §1, §2

[13] = substrate: Nc1ncnc2c1ncn2[C@@H]1O[C@H](CSc2ccc3ccccc3n2)[C@@H](O)[C@H]1O
Procedure: as §1, §2

[14] = substrate: Nc1ncnc2c1ncn2[C@@H]1O[C@H](CNCCO)[C@@H](O)[C@H]1O
Procedure: as §1, §2

[15] = substrate: Cc1ccccc1CSC[C@H]1O[C@@H](n2cnc3c(N)ncnc32)[C@H](O)[C@@H]1O
Procedure: as §1, §2

[16] = substrate: COc1ccccc1SC[C@H]1O[C@@H](n2cnc3c(N)ncnc32)[C@H](O)[C@@H]1O
Procedure: as §1, §2

[17] = substrate: Nc1ncnc2c1ncn2[C@@H]1O[C@H](COc2ccccn2)[C@@H](O)[C@H]1O
Procedure: as §1, §2

[18] = substrate: Nc1ncnc2c1ncn2[C@@H]1O[C@H](CSCc2ccc(Cl)cc2)[C@@H](O)[C@H]1O
Procedure: as §1, §2

[19] = substrate: Nc1ncnc2c1ncn2[C@@H]1O[C@H](CSCc2ccc(F)cc2)[C@@H](O)[C@H]1O
Procedure: as §1, §2

B1: Human MTAP (Homo sapiens) (protein)
chain: MASGTTTTAVKIGIIGGTGLDDPEILEGRTEKYVDTPFGKPSDALILGKIKNVDCVLLARHGRQHTIMPSKVNYQANIWALKEEGCTHVIVTTACGSLREEIQPGDIVIIDQFIDRTTMRPQSFYDGSHSCARGVCHIPMAEPFCPKTREVLIETAKKLGLRCHSKGTMVTIEGPRFSSRAESFMFRTWGADVINMTTVPEVVLAKEAGICYASIAMATDYDCWKEHEEAVSVDRVLKTLKENANKAKSLLLTTIPQIGSTEWSETLHNLKNMAQFSVLLPRH
notes: six-histidine tag (His6) (N); made in house; host or cells: E. coli BL21 DE3
- Km [1]: 3.1 µM
- kcat [1]: 2.3 s⁻¹
- Km [2]: 4.3 µM
- kcat [2]: 1.54 s⁻¹
- Km [3]: 3.2 µM
- kcat [3]: 1.5 s⁻¹
- Km [4]: 1.5 µM
- kcat [4]: 1.44 s⁻¹
- Km [5]: 390 µM
- kcat [5]: 0.141 s⁻¹
- Km [6]: 3.7 µM
- kcat [6]: 3.8 s⁻¹
- Km [7]: 3 µM
- kcat [7]: 1.5 s⁻¹
- Km [8]: 2.2 µM
- kcat [8]: 1.4 s⁻¹
- Km [9]: 7 µM
- kcat [9]: 4.1 s⁻¹
- Km [10]: 5.2 µM
- kcat [10]: 3.44 s⁻¹
- Km [11]: 33 µM
- kcat [11]: 0.126 s⁻¹
- Km [12]: 6 µM
- kcat [12]: 4.8 s⁻¹
- Km [13]: 6.9 µM
- kcat [13]: 3.16 s⁻¹
- Km [14]: 758 µM
- kcat [14]: 0.029 s⁻¹
- Km [15]: 10 µM
- kcat [15]: 0.79 s⁻¹
- Km [16]: 13 µM
- kcat [16]: 0.13 s⁻¹
- Km [17]: 29 µM
- kcat [17]: 3.82 s⁻¹
- Km [18]: 3.9 µM
- kcat [18]: 3.3 s⁻¹
- Km [19]: 5.4 µM
- kcat [19]: 2.24 s⁻¹
